Laboratory results reported in patent US20150232546A1 (THROMBOGENICS, published 2015).
Where a chain is given by its changes, count along the chain named. Ends that are not written are not given here. * marks the point of attachment. Biotin = O=C1N[C@H]2[C@H](CS[C@H]2CCCCC(=O)*)N1

T1: human PDGF-C peptide no. 58 (human)
T1 peptide: Biotin-VLQLRPKTGVRGLHK

T2: human PDGF-C peptide no. 9 (human)
T2 peptide: Biotin-FPHTYPRNTVLVWRL

T3: human PDGF-C peptide no. 27 (human)
T3 peptide: Biotin-EPGFCIHYNIVMPQF

B1: Humanized 16B1 anti-PDGF-C antibody (antibody, V domains shown)
VH: EVQLLESGGGLVQPGGSLRLSCAASGFTFSNYGMSWVRQTPGKGLEWVATIGSGGSYTYYPDSVKGRFTISRDNAKNTLYLQMNSLRAEDTAVYYCARQAPLWDYSDYWGQGTLLTVSS
VL: DVVMTQSPLSLPVTLGQPASISCRSNQSIVHSNGDTYLEWYLQKPGQSPRLLIYKVSNRFSGVPDRFSGSGSGTDFTLKISRVEAEDVGVYYCFQGSHVPPTFGQGTKLEIK
notes: also called humanized mAb 16B1
B2: recombinant human PDGFRα Fc chimera (6765-PR from R&D Systems) (Fc fusion, not shown: a dimerising Fc or GST)
chain: QLSLPSILPNENEKVVQLNSSFSLRCFGESEVSWQYPMSEEESSDVEIRNEENNSGLFVTVLEVSSASAAHTGLYTCYYNHTQTEENELEGRHIYIYVPDPDVAFVPLGMTDYLVIVEDDDSAIIPCRTTDPETPVTLHNSEGVVPASYDSRQGFNGTFTVGPYICEATVKGKKFQTIPFNVYALKATSELDLEMEALKTVYKSGETIVVTCAVFNNEVVDLQWTYPGEVKGKGITMLEEIKVPSIKLVYTLTVPEATVKDSGDYECAARQATREVKEMKKVTISVHEKGFIEIKPTFSQLEAVNLHEVKHFVVEVRAYPPPRISWLKNNLTLIENLTEITTDVEKIQEIRYRSKLKLIRAKEEDSGHYTIVAQNEDAVKSYTFELLTQVPSSILDLVDDHHGSTGGQTVRCTAEGTPLPDIEWMICKDIKKCNNETSWTILANNVSNIITEIHSRDRSTVEGRVTFAKVEETIAVRCLAKNLLGAENRELKLVAPTLRSEIEGRMD
B3: anti-PDGF-C antibody 5A2 (antibody, IgG2b, V domains shown)
VH: EVQLVESGGDLVKPGGSLKLSCAASGFTFSNYGMSWVRQTPDKRLEWVATIGSGGHYTYYPDSVKGRFTISRDSAKSTLYLQMSSLKSEDTAIYYCARQAPLWDCSDYWGQGTTLTVSS
VL: B1 VL with V3L, S7T, T14S, Q17D, P18Q, R50K, V88L, Q105G
notes: Mouse monoclonal from hybridoma, IgG2b, kappa; also called mAb 5A2; hybridoma LMBP 9484CB
B4: anti-PDGF-C antibody 5H7 (antibody, IgG1, V domains shown)
VH: EVQLVESGGDLVKPGGSLKLSCAASGFTFSSYGMSWVRQTPDKRLEWVATIGYGGSFTYYPDSMKGRFTISRDNAKNTLFLQMSSLKSEDTAIYYCVRQAPLWDYFDYWGQGTTLTVSS
VL: DVLMTQTPLSLPVSLGDQASISCRSSQTIVHSDGTTYLEWYLQKAGQSPKLLIYKVSNRFSGVPDRFSGSGSGTDFTLKISRVEAEDLGVYYCFQGSHVPPTFGGGTKLEIK
notes: Mouse monoclonal from hybridoma, IgG1, kappa; also called mAb 5H7; hybridoma LMBP 9485CB
B5: anti-PDGF-C antibody 16B1 (antibody, IgG1, V domains shown)
VH: B3 VH with H56S, S77N, I93M, C105Y
VL: B4 VL with S26N, T28S, D33N, T35D, A45P
notes: Mouse monoclonal from hybridoma, IgG1, kappa; VH same as 2D3, VL same as 5A2; also called mAb 16B1; hybridoma LMBP 9486CB
B6: anti-PDGF-C antibody 2D3 (antibody, IgG1, V domains shown)
VH: B3 VH with H56S, S77N, I93M, C105Y
VL: B4 VL with S26N, D33N, T35D, A45P, K50N
notes: Mouse monoclonal from hybridoma, IgG1, kappa; also called mAb 2D3; hybridoma LMBP 9483CB
B7: anti-PDGF-C antibody 29H1 (antibody, IgG1, V domains shown)
VH: B3 VH with K87R, E89D
VL: B4 VL with S26N, T28S, D33N, T35D, A45P, K50N
notes: Mouse monoclonal from hybridoma, IgG1, kappa; also called mAb 29H1; hybridoma LMBP 9487CB
B8: Humanized 5H7 anti-PDGF-C antibody (antibody, V domains shown)
VH: B1 VH with N31S, S53Y, Y57F, V64M, S106F
VL: B1 VL with N26S, S28T, N33D, D35T
notes: also called humanized mAb 5H7

Each binder was assayed against T4, Recombinant human PDGF-C from R&D Systems (1687-CC/CF; Val235-Gly345) (human, UniProt Q9NRA1 235-345) (assay: cell-based or functional assay).
T4 sequence (Q9NRA1 235-345 limits assumed, form in doubt): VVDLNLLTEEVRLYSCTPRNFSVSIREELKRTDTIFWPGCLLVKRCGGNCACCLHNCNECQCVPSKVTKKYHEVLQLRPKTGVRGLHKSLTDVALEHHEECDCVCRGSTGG

IC50 value (nM), PathHunter PDGFRα assay	Binder
4.97 nM	B1

Molecular target: T4, Recombinant human PDGF-C from R&D …
Assay: cell-based or functional assay
Remark: another data set of the same source

IC50 value (nM), PathHunter PDGFRα assay	Binder
0.65 nM	B2
3.36 nM	B3
5.57 nM	B4
8.38 nM	B5
7.47 nM	B6

Molecular target: T4, Recombinant human PDGF-C from R&D …
Assay: cell-based or functional assay
Remark: another data set of the same source

% PDGF-Rα activation by PDGF-C allowed at 1.85 µg/mL antibody (100% = no antibody)	Binder
30%	B3
32%	B4
38%	B5
49%	B6
23%	B7

Molecular target: T1, human PDGF-C peptide no. 58
Assay: peptide ELISA, signal to background >3
Description: (§1) The indicated peptides where synthesized in an N-terminally biotinylated form and coated onto a neutravidin plate (Thermo Scientific, Cat. 15127) at a concentration of 10 μg/mL. […] Each antibody was tested at least twice, and up to 4 times. A “+” in the table indicate that a signal to background >3 was found and confirmed at least once. The background signal was measured in the absence of peptide using both the primary and the secondary antibodies.

binding result	Binder
binds	B3
binds	B4
binds	B7

Molecular target: T2, human PDGF-C peptide no. 9
Assay: peptide ELISA, signal to background >3
Description: as §1

binding result	Binder
binds	B3

Molecular target: T3, human PDGF-C peptide no. 27
Assay: peptide ELISA, signal to background >3
Description: as §1

binding result	Binder
binds	B3

Molecular target: T4, Recombinant human PDGF-C from R&D …
Assay: cell-based or functional assay
Remark: another data set of the same source

% PDGFRα activation in the PathHunter PDGFRα assay at 5.56 µg/ml antibody with PDGF-CC at EC80 (no Ab with PDGF-CC = 100, no Ab without PDGF-CC = 24)	% PDGFRα activation in the PathHunter PDGFRα assay at 16.67 µg/ml antibody with PDGF-CC at EC80 (no Ab with PDGF-CC = 100, no Ab without PDGF-CC = 24)	% PDGFRα activation in the PathHunter PDGFRα assay at 50 µg/ml antibody with PDGF-CC at EC80 (no Ab with PDGF-CC = 100, no Ab without PDGF-CC = 24)	Binder
20%	17%	18%	B3
24%	22%	22%	B4
24%	23%	20%	B5
32%	24%	23%	B6
22%	21%	22%	B7

These binders were tested against T4, Recombinant human PDGF-C from R&D … (assay: SPR (Biacore 3000), antibody amine-coupled to CM5 chip, PDGF-C injected, 1:1 fit).
Description: (§2) The different antibodies were each separately coated to a CM5 chip at a density of 1680 RU using standard amine chemistry. Different concentrations (200, 175, 150, 125, 100, 75, 50, 25, 12.5, 6.25, 3.125 & 0 nM) of PDGF-C (R&D Systems, Cat. 1687-CC/CF) were injected over the coated antibody for 5 min, then buffer was flowed for 10 min to monitor the dissociation of the captured antigen. The surface was regeneration between each run with a single injection of glycine-HCl, pH 2.5. Affinities were obtained by analyzing the sensorgrams with the help of the BIAevaluation 4.1 software assuming a 1:1 interaction. The experiment was performed with a Biacore 3000 instrument.

Kd	Binder
5 nM	B3
2.5 nM	B4
1.2 nM	B5
1.5 nM	B6
1.5 nM	B7

These binders were tested against T4, Recombinant human PDGF-C from R&D … (assay: SPR as in Example 3).
Description: as §2
The affinity of the above-listed exemplary humanized anti-PDGF-C antibodies for PDGF-C was analysed (as in Example 3) and the humanized antibodies were subsequently assessed in the in vitro bioassay described in Example 4. A technical problem with the (preparation of) humanized antibody 5H7 may explain why this antibody is apparently not inhibiting activation of PDGFR-α although it is still binding with high affinity to PDGF-C; this is under further investigation.

Kd	Binder
2.5 nM	B8
0.8 nM	B1
